These results are taken from the nanobody polyreactivity screen of Harvey et al. (2022).

This data set can be described thus: yeast display, Sf9 membrane polyspecificity reagent, FACS + sequencing; frameworks hold sequencing errors. The gist of the method: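 Nanobodies from a synthetic yeast display library (Saccharomyces cerevisiae BJ5465), induced 36–48 hours with galactose, were stained 1 hour at 4 °C with 10% biotinylated, detergent-solubilized Sf9 membrane reagent, enriched on streptavidin microbeads, then FACS-sorted. Anti-HA (expression) and streptavidin (reagent binding) fluorescence set low and high (top ~1%) gates. Polyreactivity labels come from the gate of origin. Genes were colony-PCR amplified, MiSeq 2 × 250 sequenced and filtered by CDR length.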
Regarding “QVQLVESGGGLVQAGGSLRLSCAASGSIFYYNTMGWSRQSPGKERELVAAINTSGGSTYYADSVKGRFTISRDNATNTDYVQLNSLKPEDTAVYYCAVRYRYRFVAKGYWGQGTQVTVSS”, the “polyreactivity (PSR sort gate)” value was “high polyreactivity”. Take “QVQLVESGGGLVQAGGSLRLSCAASGSIFYYNTMGWYRQAPGKERELVAAITSTGRTNYADSVKGRFTISRDNAKNTVYLQMNSLKPEDSAVYYCAKRRFGDGDYWGQGTQVTVSS”: the “polyreactivity (PSR sort gate)” value is “low polyreactivity”. Regarding “QVQLVESGGGLVQAGGSLRLSCAASGSIFYYYAMGLYRQAPGKERELVAAITRRGGNTYYADSVKGRFTISRDNAKNTVYLQMNSLKPEDTAVYYCNAPGFAWYTTKYDYWGQGTQVTVSS”, the “polyreactivity (PSR sort gate)” value is on record as “low polyreactivity”. With “QVQLVESGGGLVQAGGSLRLSCAASGSIFYYYAMGWYRQAPGKERELVAAITYSGGSTHYADSVKGRFTISRDNAKNTVYLQMNSLKPDDTAVFYCAVYYRSHSGSRIYYWGQGTQVTVSS”, the “polyreactivity (PSR sort gate)” value was “high polyreactivity”. Consider “QVQLVESGGGLVQAGGSLRLSCAASGSIFYYYAMGWYRQAPGKERELVAGITVSGGRTYYADSVKGRFTISRDNAKNTVYLQMNSLKPEDTAVYYCAADGRAKYDYWGQGTQVTVSS”, for which the “polyreactivity (PSR sort gate)” value is “low polyreactivity”. Consider “QVQLVESGGGLVQAGGSLRLSCAASGSIFYYYAMGWYRQAPGKVRELVASISSGGRTYYADSVKGRFTISRDNAENTLYLQLNSLKPEDSAVYYCAVEVWWWEGDYDYWGLGTQVTVSS”, for which the “polyreactivity (PSR sort gate)” value is “high polyreactivity”. Regarding “QVQLVESGGGLVQAGGSLRLSCAASGSIFYYYTMGWYRQAPGKERELVAAITWSGSTYYADSVKGRFTISRDNAKNTVYLQMNSLKPEDTAVYYCNADALIAAYKYFPYTYRFNYWGQGTQVTVSS”, the “polyreactivity (PSR sort gate)” value is given as “low polyreactivity”. Regarding “QVQLVESGGGLVQAGGSLRLSCAASGSIGVYAMGWYRQSPGKERELVAGISRSGSSTFFADSVKGRFTISRDNAKNTVYLQMNSLKPEDTAVYYCTAYTYNYRQGSEYYYWGQGTQVTVSS”, the “polyreactivity (PSR sort gate)” value was “high polyreactivity”. In the case of “QVQLVESGGGLVQAGGSLRLSCAASGSIGYMGWYRQAPGKERELVAFITSSGGGTYYADSVKGRFTISRDNAKNTVYLQMNSLKPEDTAVYYCATKSSAGYDYWGQGTQVTVSS”, the “polyreactivity (PSR sort gate)” value is listed as “low polyreactivity”. On to “QVQLVESGGGLVQAGGSLRLSCAASGSIIAGYAMGWYRQAPGKERELVAAISQRGTSTYYADSVKGRFTISRDIAKNTVYLQMNSLKPEDTSVYYCAARVVSRMDYWGQGTQVTVSS”, for which the “polyreactivity (PSR sort gate)” value is “high polyreactivity”. As to “QVQLVESGGGLVQAGGSLRLSCAASGSIIDLNAMGWYRQAPGKERDLVAAISSGGGTYYADSVKGRFTISRDNAKNNVYLQMNSLKPEDTAVYYCAAIGYRVYRYYRGRTYDYWGQGTQVTVSS”, the “polyreactivity (PSR sort gate)” value is “high polyreactivity”.

In the case of “QVQLVESGGGLVQAGGSLRLSCAASGSIIFGYGMGWYRQAPGKERELVATITTSGGTYYADSVKGRFTISRDNAKNSVYLQMNSLKPEDTAVYYCAATAAALDGNTIMYYWGQGTQVTVSS”, the “polyreactivity (PSR sort gate)” value was “low polyreactivity”.

Turning to “QVQLVESGGGLVQAGGSLRLSCAASGSIIFLYAMGWYRQAPGKERELVASISTSGTTITYYADSVKGRFTISRDNAKNTVYLQMNSLKPEDTAVYYCAADTLYYPYDYWGQGTQVTVSS”, the “polyreactivity (PSR sort gate)” value is reported as “low polyreactivity”. With “QVQLVESGGGLVQAGGSLRLSCAASGSIIGDNAMGWYRPAPGKERELVAAITGGDSTYYADSVKGRFTISRDNAKNTVYLQMNSLKPEDTAVYYCNADRFRGRTVDGDYWGQGTQVTVSS” the entry was “low polyreactivity”. In the case of “QVQLVESGGGLVQAGGSLRLSCAASGSIIGYYAMGWYRQAPGKDRELVAAISWSDGSTYYAVSVKGRFTISRDNAKNTVFLQMNSLKPEVTAVYYCAARFTPYITSDDGHYDYWGQGTQVTVSA”, the “polyreactivity (PSR sort gate)” value is given as “low polyreactivity”. For “QVQLVESGGGLVQAGGSLRLSCAASGSIIGYYAMGWYRQAPGKERELVAAITASGGSTYYADSVKGRFTISRDNAKNTVYLQMNSLKPEDTAVYHCAADRIGGPGSYLYDYWGQGTQVTVSS” the value was “low polyreactivity”; for “QVQLVESGGGLVQAGGSLRLSCAASGSIIGYYAMGWYRQAPGKERELVAAITASGGSTYYADSVKGRFTISRDNAKNTVYLQMNSLKPEDTAVYYCAAGTHTDYGRYYYWGQGTQVTVSS”, “low polyreactivity”. With “QVQLVESGGGLVQAGGSLRLSCAASGSIILVYAMGWYRQAPGKERELVAGINSSGTSTYADSVKGRFTISRDNAKNTVYLQMNSLKPEDTAVYYCATPGIYYEMDYWGQGTQVTVSS”, the “polyreactivity (PSR sort gate)” value is recorded as “low polyreactivity”. In the case of “QVQLVESGGGLVQAGGSLRLSCAASGSIIPYYVMGWYRQAPGKERELVAAITSGGSTYYADSVKGRFTISRDNAKNTVYLQMNSLKPEDTAVYYCAVRWYPLYAPYWRDYWGQGTQVTVSS”, the “polyreactivity (PSR sort gate)” value is “high polyreactivity”. “QVQLVESGGGLVQAGGSLRLSCAASGSIIRQNAMGWYRQAPGKERELVAAISFSGTSTYYADSVKGRFTISRDNAKNTVYLQMNSLKPEDTAVYYCAVDNISYWAVENDYWGQGTQVTVSS”: the “polyreactivity (PSR sort gate)” value is on record as “low polyreactivity”. With “QVQLVESGGGLVQAGGSLRLSCAASGSIIRRYAMGWYRPAPGKERELVAAISSGGSTYYADSVKGRFTISRDNAKNTVYLQMNSLKPEDTAVYYCAALYYQITTTHYLHLHYDYWGEGTQVTVSS” the entry was “low polyreactivity”. In the case of “QVQLVESGGGLVQAGGSLRLSCAASGSIIRWNAMGWYRQAPGKERELVAAISYSGGSTYYADSVKGRFTISRDNAKNTVYLQMNSLKPEDTAVYYCAKEYIVGFYLVFNRFDYWGQGTQVTVSS”, the “polyreactivity (PSR sort gate)” value is “low polyreactivity”. As to “QVQLVESGGGLVQAGGSLRLSCAASGSIIRWYTMAWYRQAPGKESEFVAAITRSGGSTYYADSVKVRFTISRDNAKNTVYLQMNSLKPEDTAVYYCARYANYDKRYDYWGQGTQVTVSS”, the “polyreactivity (PSR sort gate)” value is on record as “high polyreactivity”.

On to “QVQLVESGGGLVQAGGSLRLSCAASGSIISSYAMGWYRKAPGKETELLAVITRSGGSTYYADSVKGRFTISRDNAKNTVYLQMKSLKPVDTAVYYCNAQPTRIKLPSYDYWGQGTQVTVST”, for which the “polyreactivity (PSR sort gate)” value is reported as “high polyreactivity”.

For the sequence “QVQLVESGGGLVQAGGSLRLSCAASGSIISSYAMGWYRQAPGKEREFVAAISSSGDSTYADSVKGRFTISRDNAKNTVYVQMNSLKPEDTAVFYCAVGGAGSDDYWGQGSQVTVSS”, the “polyreactivity (PSR sort gate)” value was “low polyreactivity”. “QVQLVESGGGLVQAGGSLRLSCAASGSIISYNTMGWYRQAPGKEREFVASIRRRGGSTYYADSVKGRFTISRDNAKNTVYLQMNSLKPEDTAGYYCAKANPHYVISDGVYHPRGGYWGHGTQVTVSS”: the “polyreactivity (PSR sort gate)” value was “low polyreactivity”. In the case of “QVQLVESGGGLVQAGGSLRLSCAASGSIITPYAMGWYRQAPGKERELVAAISGRGGSTYYADSVKGRFTISRDNAKNTVYLQMNSLKPEDTAVFFCAAKRSGGQGQGYGYWGQGTQVTVSS”, the “polyreactivity (PSR sort gate)” value is “high polyreactivity”. On to “QVQLVESGGGLVQAGGSLRLSCAASGSIITVNAMGWYRQAPGKEREFVAGITSIGGRTYYADSVKGRFTISRDNAKNTDYLQMNSLKPEDTAVYDCNKRTYRARYDYWGQGTQVTVSS”, for which the “polyreactivity (PSR sort gate)” value is “high polyreactivity”. Regarding “QVQLVESGGGLVQAGGSLRLSCAASGSIIWRNAMGWYSQAPGKERELVAAISYSGGSTYYADSVKGRFTISRDNAKNTVDLQMNSLKPEDTAVYYCAADYTEVLEYDYWGQGTQVTVSS”, the “polyreactivity (PSR sort gate)” value is reported as “low polyreactivity”.

As for “QVQLVESGGGLVQAGGSLRLSCAASGSIIWYYAMGWYRQAPGKERELVAAISISGSTYYADSVKGRFTISRDNAKNTVYLQMNSLKPEDTAVYYCAARKFFWRSNYDYWGQGTQVTVSS”, the “polyreactivity (PSR sort gate)” value was “low polyreactivity”.

In the case of “QVQLVESGGGLVQAGGSLRLSCAASGSIIYNYAMGWYRQAPGKERELVAAINRSGGITYYADSVKGRFTISRDNAKNPVYLQMNSLKPEDTAVYYCAADRSFGHHYWYTGKRYDYWGQGTQVTVST”, the “polyreactivity (PSR sort gate)” value was “low polyreactivity”. For “QVQLVESGGGLVQAGGSLRLSCAASGSIIYTYAMGWYRQAPGKVRELVAAITGSDNTNYADSVKGRFTISRDNAKNTVYLQMNSLNPEDTAVYYCAADFPWSTKSWHPDSGDSWGQGTQVTVSS” the value was “low polyreactivity”; for “QVQLVESGGGLVQAGGSLRLSCAASGSILADYAMGWYRQGPGKERELVAGISSGGSTNYADSVKGRFTITGDNAKNTVSLQMNSLKPEDTAVYYCNADQDFLFIGYLFDYWGQGTQVTVSS”, “low polyreactivity”.

Turning to “QVQLVESGGGLVQAGGSLRLSCAASGSILALYTMGVYRQAPGKERELVASISSGGRTNYADSVKGRFTISRDNAKNTVYLQMNSLKPEDTAVYYCARSRLGRAYGRYDYWGQGTQVTVSS”, the “polyreactivity (PSR sort gate)” value is given as “low polyreactivity”. On to “QVQLVESGGGLVQAGGSLRLSCAASGSILARYAMGWYRQAPGKERQLVAAISYNGCSTYYADSVKGRFTISRDNAKNTVYLQMNSLKPEDTAVYYCAKAYDTTLTYNYWGQGTQVTVSS”, for which the “polyreactivity (PSR sort gate)” value was “low polyreactivity”.

For the sequence “QVQLVESGGGLVQAGGSLRLSCAASGSILDGYDMGRYRQAPGKERDLDAAISTNSDRTYYADSVKGRFTISRDNAKNTVYLQMNSLKPEDTAVYYCNARKRRRAGYPYDYWGQGTQVTVSS”, the “polyreactivity (PSR sort gate)” value was “high polyreactivity”. In the case of “QVQLVESGGGLVQAGGSLRLSCAASGSILDIYAMGLYRQAPGKERELVAGISTSGGSTYYADSVMGRFTFSRDNAKITVYLQMNSLKPEDTAVYYCAKDYGYQGHTSTLYWAYLEYDFWGQVTQVTVSS”, the “polyreactivity (PSR sort gate)” value is given as “low polyreactivity”.

In the case of “QVQLVESGGGLVQAGGSLRLSCAASGSILDLNAMGWYRQAPGKERELVAAISYSGDSTYYADSVKGRFTISRDNAKNTVYLQMNSLKPEDTAVYYCAAEVYGAVFDYWGQGTQVTVSS”, the “polyreactivity (PSR sort gate)” value is on record as “low polyreactivity”.

Consider “QVQLVESGGGLVQAGGSLRLSCAASGSILDQNTMGWYRQAPGKERELVAAITGSGGITYYADSVKGRFTISRDNAKNTVYLQMNSLKPEDTAVYYCATRTWRAYRKYNYWGQGTQVTVSS”, for which the “polyreactivity (PSR sort gate)” value is “high polyreactivity”. Turning to “QVQLVESGGGLVQAGGSLRLSCAASGSILDSNAMGWYRQAPGKERELVAAITSGGSTYYADSVKGRFTISRDNAKNTVYLQMNSLKPEETAVYYCAAAYLGYGAVQPSYEGGYWGQGTQVTVSS”, the “polyreactivity (PSR sort gate)” value is recorded as “low polyreactivity”.

As for “QVQLVESGGGLVQAGGSLRLSCAASGSILDSYAMGWDRQAPGKERELVAASTRSGVRTYYADSVKGRFTISRDNAKNTVYLQMNSLKPEDTAVYYCAARVTRYRDLNYWGQGTQVTVSS”, the “polyreactivity (PSR sort gate)” value was “high polyreactivity”.
